Measured values reported in patent US20040197809A1.
Several values for one entry are separate records, joined by “and”; a condition that tells them apart may be missing. Identical values can stand only once.

Key:
[1] = target: HIV-1 strain HTLV-IIIB (virus) (HIV-1 strain HTLV-IIIB); assay: cell-based or functional assay
[2] = target: gp120, the major envelope glycoprotein of HIV-I (HIV-1); assay: saturation binding of 125I-gp120 in solution, immunoprecipitation with OKT4, Scatchard analysis
[3] = target: gp120, the major envelope glycoprotein of HIV-I (HIV-1); assay: gp120 binding by the method of Smith et al., Science 238:1704-07 (1987)
[4] = target: Fcγ receptor (determined with U937 cells) (Homo sapiens (Human)) (UniProt P12314); assay: binding to Fcγ receptor on U937 cells, method of Anderson et al., J. Immunol. 125:2735-2741 (1980)
UniProt P12314, sequence (P12314 16-374 limits assumed, form in doubt): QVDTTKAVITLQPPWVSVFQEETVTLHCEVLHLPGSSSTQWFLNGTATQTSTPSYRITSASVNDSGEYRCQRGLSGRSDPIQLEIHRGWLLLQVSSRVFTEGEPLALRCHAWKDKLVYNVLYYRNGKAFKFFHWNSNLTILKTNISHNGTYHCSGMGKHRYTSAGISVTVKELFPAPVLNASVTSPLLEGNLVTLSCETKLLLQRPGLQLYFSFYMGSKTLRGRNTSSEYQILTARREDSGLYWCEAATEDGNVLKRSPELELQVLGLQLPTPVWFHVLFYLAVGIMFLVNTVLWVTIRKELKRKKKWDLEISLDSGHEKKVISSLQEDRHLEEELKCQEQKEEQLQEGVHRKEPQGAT

CD4T (CD4 fused after residue 368 of mature CD4 to 9 residues coded by pBR322 sequence) (from UniProt P01730 27-393) (receptor)
Indirect immunofluorescence (% positive cells), inhibitor supernatant 1:4 (% positive cells) [1]: 18 and 16.1
Indirect immunofluorescence (% positive cells), inhibitor supernatant undil. (% positive cells) [1]: 0.4 and 0.8
Reverse transcriptase (cpm/ml × 10^5), inhibitor supernatant 1:4 [1]: 372000 cpm/ml and 594000 cpm/ml
Reverse transcriptase (cpm/ml × 10^5), inhibitor supernatant undil. [1]: 11000 cpm/ml and 15000 cpm/ml
Kd [2]: 0.83 nM

CD42γ1 immunoadheson (CD4 to glutamine residue 180 fused to the constant region of human immunoglobulin γ1) (Fc fusion)
Kd [3]: 1.4 nM
Kd [4]: 3.01 nM

CD44γ1 immunoadheson (CD4 to serine residue 366 fused to the constant region of human immunoglobulin γ1) (Fc fusion)
Kd [3]: 1.2 nM
Kd [4]: 2.83 nM

bulk human IgG1 (antibody)
Kd [4]: 3.52 nM

gDCD4T (signal peptide and first 27 residues of mature HSV type I gD glycoprotein fused to mature CD4T) (receptor)
Indirect immunofluorescence (% positive cells), inhibitor supernatant 1:4 (% positive cells) [1]: 26.8 and 36.1
Reverse transcriptase (cpm/ml × 10^5), inhibitor supernatant 1:4 [1]: 992000 cpm/ml and 1.13e+06 cpm/ml
Reverse transcriptase (cpm/ml × 10^5), inhibitor supernatant undil. [1]: 14000 cpm/ml and 23000 cpm/ml
Kd [2]: 0.72 nM
